We go through 1 variant from IntAct's records for PubMed 25265331.

B1: Replication restart protein DnaT (Escherichia coli (strain K12)), P0A8J2 (parent)
chain: MSSRVLTPDVVGIDALVHDHQTVLAKAEGGVVAVFANNAPAFYAVTPARLAELLALEEKLARPGSDVALDDQLYQEPQAAPVAVPMGKFAMYPDWQPDADFIRLAALWGVALREPVTTEELASFIAYWQAEGKVFHHVQWQQKLARSLQIGRASNGGLPKRDVNTVSEPDSQIPPGFRG
partner: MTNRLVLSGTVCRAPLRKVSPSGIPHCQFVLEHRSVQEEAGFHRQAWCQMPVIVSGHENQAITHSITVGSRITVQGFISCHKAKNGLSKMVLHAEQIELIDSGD

The assay covers variants of B1. The conditions noted are these: with prib_ecoli priB.
On to D70A, for which the “effect of a mutation on the interaction” value was “disrupting interaction”.
